Experimental data reported in publication PMC12078792.

Experiments:
[1] = target: HIV-1 CA hexamer tubes, disulfide-stabilized CA hexamers (A14C/E45C) assembled into large molecular weight tubes; assay: co-sedimentation with CA hexamer tubes; conditions: parent: est. 81; read off a plot
[2] = target: HIV-1 CA hexamer tubes, disulfide-stabilized CA hexamers (A14C/E45C) assembled into large molecular weight tubes; assay: co-sedimentation with CA hexamer tubes; conditions: read off a plot
[3] = target: HIV-1 CA hexamer tubes, disulfide-stabilized CA hexamers (A14C/E45C) assembled into large molecular weight tubes (HIV-1)

## TRIM-NUP153C-HA, TRIM domain of rhesus TRIM5α (1-304) fused to the HA-tagged human NUP153 C-terminal domain (896-1475), wild type (from UniProt Q0PF16;P49790) ∆1::2 (CbM.1 replaced by CbM.2)
[1]
  response (% Bound NUP153c): 55
[2]; parent: est. 81
  response (% Bound NUP153c): 55

## TRIM-NUP153C-HA, TRIM domain of rhesus TRIM5α (1-304) fused to the HA-tagged human NUP153 C-terminal domain (896-1475), wild type (from UniProt Q0PF16;P49790) ∆1::3 (CbM.1 replaced by CbM.3)
[1]
  response (% Bound NUP153c): 47

## TRIM-NUP153C-HA, TRIM domain of rhesus TRIM5α (1-304) fused to the HA-tagged human NUP153 C-terminal domain (896-1475), wild type (from UniProt Q0PF16;P49790) ∆1::4 (CbM.1 replaced by CbM.4)
[1]
  response (% Bound NUP153c): 51

## TRIM-NUP153C-HA with CbM.1 replaced by CbM.2 (∆1::2) (from UniProt Q0PF16;P49790) F1417A
[2]; parent: est. 55
  response (% Bound NUP153c): 36

## TRIM-NUP153C-HA, TRIM domain of rhesus TRIM5α (1-304) fused to the HA-tagged human NUP153 C-terminal domain (896-1475), wild type (from UniProt Q0PF16 1-304; P49790 896-1475)
[3]
  TRIM-NUP153c restriction assay: HIV-GFP-transduced GFP-positive cells relative to empty vector control (% relative to empty vector control): 18.5

## TRIM-NUP153C-HA with the mutation F1417A in CbM.1 (from UniProt Q0PF16 1-304; P49790 896-1475)
[3]
  TRIM-NUP153c restriction assay: increase in HIV-GFP-positive cells: 7 fold

## TRIM-NUP153C-HA, TRIM domain of rhesus TRIM5α (1-304) fused to the HA-tagged human NUP153 C-terminal domain (896-1475), wild type (from UniProt Q0PF16;P49790) ∆2::1 + ∆1::2 (CbM.1 and CbM.2 swapped)
[2]; parent: est. 81
  response (% Bound NUP153c): 97
